Values of other authors in patent publication US20100298348A1, “Method of Decreasing Ubiquitylated Protein Levels” (priority 2009, published 2010).

B1: Uch-L1: ubiquitin hydrolase (protein, UniProt P09936 1-220, looked up)
Ubiquitin carboxyl-terminal …: MQLKPMEINPEMLNKVLSRLGVAGQWRFVDVLGLEEESLGSVPAPACALLLLFPLTAQHENFRKKQIEELKGQEVSPKVYFMKQTIGNSCGTIGLIHAVANNQDKLGFEDGSVLKQFLSETEKMSPEDRAKCFEKNEAIQAAHDAVAQEGQCRVDDKVNFHFILFNNVDGHLYELDGRMPFPVNHGASSEDTLLKDAAKVCREFTEREQGEVRFSAVALC

What was measured:
gamma secretase = settings: in vivo; cited from earlier work
hippocampal slices = settings: cited from earlier work
mouse model of AD = settings: cited from earlier work

| Molecule | outcome of Phase III clinical trial (gamma secretase) | Aβ-induced decrease in synaptic function (hippocampal slices) | learning and memory (mouse model of AD) |
| --- | --- | --- | --- |
| C[C@@H](C(=O)O)c1ccc(-c2ccccc2)c(F)c1 [Flurizan] | failed |  |  |
| B1 |  | reverses | improves |
